First the molecules themselves.
B5: Soluble human FLAG-FasL (synthesized at HGS) (ligand, UniProt P48023 130-281, looked up, not shown: small tags and cut ends)
chain: QIGHPSPPPEKKELRKVAHLTGKSNSRSMPLEWEDTYGIVLLSGVKYKKGGLVINETGLYFVYSKVYFRGQSCNNLPLSHKVYMRNSKYPQDLVMMEGKMMSYCTTGQMWARSSYLGAVFNLTSADHLYVNVSELSLVNFEESQTFFGLYKL
notes: called trimerized in the kinetic BIAcore run; cross-linked with FLAG antibody in the cell assays; also called FasL-Flag; trimerized FLAG-FasL
B9: TNFR-6 alpha-Fc fusion protein (full length TNFR-6 alpha, amino acids 1-300 of SEQ ID NO:2, fused to the Fc domain of human IgG1) (Fc fusion, not shown: a dimerising Fc or GST)
chain: VAETPTYPWRDAETGERLVCAQCPPGTFVQRPCRRDSPTTCGPCPPRHYTQFWNYLERCRYCNVLCGEREEEARACHATHNRACRCRTGFFAHAGFCLEHASCPPGAGVIAPGTPSQNTQCQPCPPGTFSASSSSSEQCQPHRNCTALGLALNVPGSSSHDTLCTSCTGFPLSTRVPGAEECERAVIDFVAFQDISIKRLQRLLQALEAPEGWGPTPRAGRAALQLKLRRRLTELLGAQDGALLVRLLQALRVARMPGLERSVRERFLPVH

Experiment [1] deals with T1, TNF-gamma-beta, full length, on transfected cells (human, UniProt O95150 1-251).
T1 construct: whole, on cells; also called TL1β
T1 sequence (looked up): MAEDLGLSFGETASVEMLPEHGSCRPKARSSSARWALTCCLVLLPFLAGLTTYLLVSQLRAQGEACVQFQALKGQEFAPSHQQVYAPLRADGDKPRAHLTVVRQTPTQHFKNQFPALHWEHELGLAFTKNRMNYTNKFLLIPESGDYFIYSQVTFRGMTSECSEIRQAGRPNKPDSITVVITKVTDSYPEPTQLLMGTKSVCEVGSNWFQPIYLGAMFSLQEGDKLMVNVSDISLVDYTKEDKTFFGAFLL
Kind of experiment: flow cytometry on HEK293F cells expressing full length TNF-gamma-beta. The procedure: One million cells, in 0.1 ml of FACS buffer (PBS, 0.1% BSA, 0.1% NaN₃), were incubated with 0.1-1 microgram of protein or antibody at RT for 15 min. The cells were washed with 3 ml of FACS buffer, reacted with biotinylated primary antibody, and stained with PE-conjugated secondary antibody at RT for 15 min. Cells were then washed again, resuspended in 0.5 microgram/ml of propidium iodide, and live cells were gated and analyzed on a FACScan using the CellQuest software (BD Biosciences).
A general note: A flow cytometer gives signals particle by particle.

Another experiment has as its target T2, TNFR-6 alpha-(His) (human, UniProt O95407 30-300).
T2 construct: also called TNFR-6α; DcR3
T2 sequence: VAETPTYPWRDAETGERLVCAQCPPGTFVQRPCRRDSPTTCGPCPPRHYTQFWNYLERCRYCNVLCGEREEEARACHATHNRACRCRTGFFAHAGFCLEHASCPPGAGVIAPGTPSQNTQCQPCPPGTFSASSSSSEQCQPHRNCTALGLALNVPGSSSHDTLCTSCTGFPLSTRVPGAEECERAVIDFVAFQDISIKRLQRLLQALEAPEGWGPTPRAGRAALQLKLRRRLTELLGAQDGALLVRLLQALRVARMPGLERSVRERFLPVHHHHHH
Kind of experiment: flow cytometry on AIM-II-transfected HEK 293 EBNA cells.

In experiment [2] the target is B9. Kind of experiment: BIAcore, TR6-Fc immobilized, trimerized FLAG-FasL soluble.
The target of experiment [3] is T3, Full-length human TR6 (without Fc) (human, UniProt O95407 30-300).
T3 construct: Full-length cDNA expressed in Sf9 cells with the natural leader; also called TR6 non-Fc; TR6-non-Fc
T3 sequence: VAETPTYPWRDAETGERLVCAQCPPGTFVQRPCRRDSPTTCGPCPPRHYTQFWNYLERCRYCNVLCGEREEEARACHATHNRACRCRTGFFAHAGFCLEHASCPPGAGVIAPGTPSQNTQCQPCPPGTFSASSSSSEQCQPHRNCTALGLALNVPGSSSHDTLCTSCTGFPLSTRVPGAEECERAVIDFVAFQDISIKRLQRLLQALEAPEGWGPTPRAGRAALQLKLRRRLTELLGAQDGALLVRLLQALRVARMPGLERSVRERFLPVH
Kind of experiment: BIAcore, FasL-Flag soluble. A general note: In SPR one partner is held on a chip, and binding of the other changes the refractive index at the surface.

Experiment [4] addresses T4, FLAG-tagged soluble form of TNF-gamma-beta (aa 72-251) (human, UniProt O95150 72-251).
T4 construct: also called FLAG-TL1β; FLAG-TNF-gamma-beta
T4 sequence (looked up): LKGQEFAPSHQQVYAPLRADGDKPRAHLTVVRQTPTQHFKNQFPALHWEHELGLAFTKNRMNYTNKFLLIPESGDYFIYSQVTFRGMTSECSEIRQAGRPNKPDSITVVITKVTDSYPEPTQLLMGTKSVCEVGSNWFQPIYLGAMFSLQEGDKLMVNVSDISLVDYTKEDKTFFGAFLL
Kind of experiment: coimmunoprecipitation with protein A-Sepharose, anti-Flag western blot. The text has this: The beads were then precipitated and washed extensively with PBST buffer (PBS, 0.5% Triton X-100) before boiled in SDS-sample buffer. Proteins were resolved on 4-20% Tris-Glycine gels (NOVEX), transferred to nitrocellulose membranes, and blotted with anti-Flag M2 monoclonal antibody (1 microgram/ml, Sigma) and horseradish peroxidase (HRP)-conjugated goat anti-mouse IgG antibody (0.5 microgram/ml).
A general note: A western blot detects proteins with antibodies after separation by electrophoresis.

Experiment [5] addresses B9. Kind of experiment: BIAcore.
The target of experiment [6] is T5, sFas ligand (Alexis Corporation) with a FLAG epitope tag at its N-terminus (human, UniProt P48023 103-281).
T5 sequence (looked up): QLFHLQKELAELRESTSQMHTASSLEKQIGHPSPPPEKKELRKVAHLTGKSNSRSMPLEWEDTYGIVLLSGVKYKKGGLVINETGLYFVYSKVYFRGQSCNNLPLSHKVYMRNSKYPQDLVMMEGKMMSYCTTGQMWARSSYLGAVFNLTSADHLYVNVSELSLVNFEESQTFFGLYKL
Kind of experiment: cell-based or functional assay.

Experiment [7] concerns the target T6, Murine FasL on transfected murine L929 cells (murine, UniProt P41047 1-279).
T6 sequence (looked up): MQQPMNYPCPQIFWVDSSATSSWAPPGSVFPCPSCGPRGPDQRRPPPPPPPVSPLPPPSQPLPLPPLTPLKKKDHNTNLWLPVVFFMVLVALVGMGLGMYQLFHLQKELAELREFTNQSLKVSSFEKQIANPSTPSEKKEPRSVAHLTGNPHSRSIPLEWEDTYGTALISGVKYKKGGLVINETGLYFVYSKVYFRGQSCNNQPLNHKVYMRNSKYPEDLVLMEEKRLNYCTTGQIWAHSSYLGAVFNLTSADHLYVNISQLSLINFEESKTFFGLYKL
Kind of experiment: cell-based or functional assay.

The target of experiment [8] is B5. Kind of experiment: cell-based or functional assay.

The term Kd denotes the free concentration of one partner at which half of the binding sites on the other are occupied at equilibrium, for simple one-to-one binding. Lower therefore signals tighter binding.

B1: OX40-Fc (Fc fusion, UniProt P43489 29-214, looked up, not shown: a dimerising Fc or GST)
chain: LHCVGDTYPSNDRCCHECRPGNGMVSRCSRSQNTVCRPCGPGFYNDVVSSKPCKPCTWCNLRSGSERKQLCTATQDTVCRCRAGTQPLDSYKPGVDCAPCPPGHFSPGDNQACKPWTNCTLAGKHTLQPASNSSDAICEDRDPPATQPQETQGPPARPITVQPTEAWPRTSQGPSTRPVEVPGGRA
notes: extracellular domain
On to B1, for which the binding result in [1] is “no binding”.

B2: AITR-Fc (Fc fusion, UniProt Q9Y5U5 26-162, looked up, not shown: a dimerising Fc or GST)
chain: QRPTGGPGCGPGRLLLGTGTDARCCRVHTTRCCRDYPGEECCSEWDCMCVQPEFHCGDPCCTTCRHHPCPPGQGVQSQGKFSFGFQCIDCASGTFSGGHEGHCKPWTDCTQFGFLTVFPGNKTHNAVCVPGSPPAEP
notes: extracellular domain
For the molecule B2, the binding result in experiment [1] is given as “no binding”.

B3: DcR1-Fc (Fc fusion, UniProt O14798 26-236, looked up, not shown: a dimerising Fc or GST)
chain: ATTARQEEVPQQTVAPQQQRHSFKGEECPAGSHRSEHTGACNPCTEGVDYTNASNNEPSCFPCTVCKSDQKHKSSCTMTRDTVCQCKEGTFRNENSPEMCRKCSRCPSGEVQVSNCTSWDDIQCVEEFGANATVETPAAEETMNTSPGTPAPAAEETMNTSPGTPAPAAEETMTTSPGTPAPAAEETMTTSPGTPAPAAEETMITSPGTPA
notes: extracellular domain
B3: in experiment [1], the binding result is given as “no binding”.

B4: AIM-II, full sequence, on stably transfected HEK 293 EBNA cells (ligand, UniProt O43557 1-240, looked up)
chain: MEESVVRPSVFVVDGQTDIPFTRLGRSHRRQSCSVARVGLGLLLLLMGAGLAVQGWFLLQLHWRLGEMVTRLPDGPAGSWEQLIQERRSHEVNPAAHLTGANSSLTGSGGPLLWETQLGLAFLRGLSYHDGALVVTKAGYYYIYSKVQLGGVGCPLGLASTITHGLYKRTPRYPEELELLVSQQSPCGRATSSSRVWWDSSFLGGVVHLEAGEKVVVRVLDERLVRLRDGTRSYFGAFMV
notes: whole, on cells
Regarding B4, the binding result in the experiment with TNFR-6 alpha-(His) was “binds”.

On to B5, for which the Kd in experiment [2] stood at 4.6 nM; in experiment [3], 17 nM.

B6: TACI-Fc (extracellular domain of human TAC1, aa 1-159, fused to the Fc domain of human IgG1) (Fc fusion, UniProt O14836 1-159, looked up, not shown: a dimerising Fc or GST)
chain: MSGLGRSRRGGRSRVDQEERFPQGLWTGVAMRSCPEEQYWDPLLGTCMSCKTICNHQSQRTCAAFCRSLSCRKEQGKFYDHLLRDCISCASICGQHPKQCAYFCENKLRSPVNLPPELRRQRSGEVENNSDNSGRYQGLEHRGSEASPALPGLKLSADQ
notes: range 1-159; also called TAC1-Fc
Turning to B6, the binding result in experiment [1] and in experiment [4] was “no binding” in each case.

B7: Extra-cellular portion of FasL (Oncogene Research Products), amino acids 103-281 (ligand, human, UniProt P48023 103-281, looked up)
chain: QLFHLQKELAELRESTSQMHTASSLEKQIGHPSPPPEKKELRKVAHLTGKSNSRSMPLEWEDTYGIVLLSGVKYKKGGLVINETGLYFVYSKVYFRGQSCNNLPLSHKVYMRNSKYPQDLVMMEGKMMSYCTTGQMWARSSYLGAVFNLTSADHLYVNVSELSLVNFEESQTFFGLYKL
notes: range 103-281; Immobilised on a BIAcore chip (2020 RU); also called immobilized FasL
Turning to B7, the binding result in experiment [5] is “binds”.

B8: RANK-Fc (Fc fusion, UniProt Q9Y6Q6 30-212, looked up, not shown: a dimerising Fc or GST)
chain: IAPPCTSEKHYEHLGRCCNKCEPGKYMSSKCTTTSDSVCLPCGPDEYLDSWNEEDKCLLHKVCDTGKALVAVVAGNSTTPRRCACTAGYHWSQDCECCRRNTECAPGLGAQHPLQLNKDTVCKPCLAGYFSDAFSSTDKCRPWTNCTFLGKRVEHHGTEKSDAVCSSSLPARKPPNEPHVYLP
notes: extracellular domain
Consider B8, for which the binding result in experiment [1] is given as “no binding”.

As for B9, the “IC50 (read off the curve): TR6Fc concentration giving half rescue of Jurkat viability from sFasL 20 ng (Alamar blue, OD 570 nm - 630 nM)” value in experiment [6] was approximately 5 ng/mL. Further, the “IC50 of inhibition of killing of A20 target cells by murine FasL-transfected L929 cells” value in experiment [7] is approximately 1 ng/mL. Moreover, the “potency against FasL-induced Jurkat cytotoxicity relative to Fas-Fc” value in experiment [8] is 100 fold.

B10: TNFR1-Fc (Fc fusion, UniProt P19438 30-211, looked up, not shown: a dimerising Fc or GST)
chain: LVPHLGDREKRDSVCPQGKYIHPQNNSICCTKCHKGTYLYNDCPGPGQDTDCRECESGSFTASENHLRHCLSCSKCRKEMGQVEISSCTVDRDTVCGCRKNQYRHYWSENLFQCFNCSLCLNGTVHLSCQEKQNTVCTCHAGFFLRENECVSCSNCKKSLECTKLCLPQIENVKGTEDSGTT
notes: extracellular domain; also called TNFRLFc
For the molecule B10, in experiment [1], the binding result is recorded as “no binding”.

B11: OPG-Fc (Fc fusion, UniProt O00300 22-201, looked up, not shown: a dimerising Fc or GST)
chain: ETFPPKYLHYDEETSHQLLCDKCPPGTYLKQHCTAKWKTVCAPCPDHYYTDSWHTSDECLYCSPVCKELQYVKQECNRTHNRVCECKEGRYLEIEFCLKHRSCPPGFGVVQAGTPERNTVCKRCPDGFFSNETSSKAPCRKHTNCSVFGLLLTQKGNATHDNICSGNSESTQKCGIDVTL
notes: extracellular domain
With B11, in experiment [1], the binding result is given as “no binding”.

B12: DcR2-Fc (Fc fusion, UniProt Q9UBN6 56-211, looked up, not shown: a dimerising Fc or GST)
chain: ATIPRQDEVPQQTVAPQQQRRSLKEEECPAGSHRSEYTGACNPCTEGVDYTIASNNLPSCLLCTVCKSGQTNKSSCTTTRDTVCQCEKGSFQDKNSPEMCRTCRTGCPRGMVKVSNCTPRSDIKCKNESAASSTGKTPAAEETVTTILGMLASPYH
notes: extracellular domain
For B12, in [1], the binding result is given as “no binding”.

For the origin of these results see patent publication US20060234285A1 (Human Genome Sciences, published 2006).
